This is an account of results in article PMC2517623, “The NDR/LATS Family Kinase Cbk1 Directly Controls Transcriptional Asymmetry” (PLoS Biology, 2008).

Sequences and labels used below:
B1: GST-Ace2(122-150) F127V (domain or fragment)
chain: SGTAIVGFLGHNKTLSISSLQQSILNMSK
notes: source: E. coli BL21(DE3)RIL, immobilised from lysate on glutathione-sepharose and washed; not shown: GST, N-terminal, kept
B2: GST-Ace2(122-150) S137D (domain or fragment)
chain: SGTAIFGFLGHNKTLDISSLQQSILNMSK
notes: as for B1
B3: GST-Ace2(122-150) S122D (domain or fragment)
chain: DGTAIFGFLGHNKTLSISSLQQSILNMSK
notes: as for B1
B4: GST-Ace2(122-150), wild-type (domain or fragment)
chain: SGTAIFGFLGHNKTLSISSLQQSILNMSK
notes: as for B1

The experiment concerns the target His6-Crm1 (S. cerevisiae, UniProt P30822 1-1084). The experiment is described as follows: pull-down; GST fusions immobilised on glutathione-sepharose from E. coli lysate and washed five times in PBS/KMD; His6-Xpo1 (Crm1) 5 μM in 100 μl, 4 °C, 15 min; washed with TBST; SDS-PAGE, GelCode Blue; without Ran-GTP. The following applies: both partners purified.
Take B1: the binding result is given as “binds”.
Under B2 stands “binds”; under B3, “binds”.
In the case of B4 it was “binds”.
